Data from US8357523B2, “Beta-glucosidase variant enzymes and related polynucleotides” (Codexis, Inc., priority 2009, dated 2013).
Substitutions are numbered along the chain they refer to.

B1: 194 (protein)
chain: STAIAQEGAAPAAILHPEKWPRPATQRLIDPAVEKRVDALLKQLSVEEKVGQVIQGDIGTITPEDLRKYPLGSILAGGDSGPNGDDRAPPKEWLDLADAFYRVSLEKRPGHTPIPVLFGIDAVHGHGNIGSATIFPHNIALGMTRDPELLRRIGEVTAEEMAATGIDWTFAPALSVVRDDRWGRTYEGFSEDPEIVASYSAAIVEGVQGKFGSKDFMAPGRIVASAKHFLADGGTDQGRDQGDARISEDELIRIHNPGYPPAIDAGVLTVMASFSSWQGIKHHGHKQLLTDVLKGQMGFNGFIVGDWNAHDQVPGCTKFNCPTSLIAGLDMYMAADSWKQLYENTLAQVKDGTIPMARLDDAVRRILRVKVLAGLFEKPAPKDRPGLPGLETLGSPEHRAVGREAVRKSLVLLKNDKGTLPLSPKARVLVAGDGADNIGKQSGGWTISWQGTGNRNDEFPGATSILGGIRDAVADAGGSVEFDVPGQYKTKPDVAIVVFGEEPYAEFQGDVETLEYQPDQKQDLALLKKLKDQGIPVVAVFLSGRPMWVNPELNASDAFVAAWLPGTEGGGVADVLFTDKAGKVQHDFAGKLSYSWPRTAAQTTVNRGDADYNPLFAYGYGLTYKDKSKVGTLPEESGVPAEARQNAGIYFRAGALRLPGRFL
B2: 209 (protein)
chain: B1 chain with P257A, M331L
B3: 198 (protein)
chain: B1 chain with S213P, P257A
B4: 204 (protein)
chain: B1 chain with Q26R, P257A, P485A, T604P
B5: 196 (protein)
chain: B1 chain with P257A, P485A, G570P, T604P
B6: 199 (protein)
chain: B1 chain with S213P, G220V, P257A, P485A
B7: 197 (protein)
chain: B1 chain with P257A, T604P
B8: 183 (protein)
chain: STAIAQEGAAPAAILHPEKWPRPATQRLIDPAVEKRVDALLKQLSVEEKVGQVIQGDIGTITPEDLRKYPLGSILAGGDSGPNGDDRAPPKEWLDLADAFYRVSLEKRPGHTPIPVLFGIDAVHGHGNIGSATIFPHNIALGATRSPELLRRIGEVTAVEMTATGIDWTFAPALSVVRDDRWGRTYEGFSEDPEIVASYSAAIVEGVQGKYGSKDFMAPGRAVACAKHFLADGGTDQGRDQGDARISEDELIRIHNAGYPPAIDAGVLTVMASFSSWQGIKHHGHKQLLTDVLKGQMGFNGFIVGDWNAHGQVPGCTKFKCPTSLIAGLDMYMAADSWKQLYENTLAQVKDGTIPMAHLDDAVRRILRVKVLAGLFEKPAPKDRPGLPGLETLGSPEHRAVGREAVRKSLVLLKNDKGTLPLSPKARVLVAGDGADNIGKQSGGWTISWQGTGNRNDEFPGATSILGGIRDAVADAGGSVEFDVAGQYKTKPDVAIVVFGEEPYAEFQGDVETLEYQPDQKQDLALLKKLKDQGIPVVAVFLSGRPMWVNPELNASDAFVAAWLPGTEGGGVADVLFTDKAGKVQHDFAGKLSYSWPRTAAQTTVNRGDADYNPLFAYGYGLTYKDKSKVGTLPEESGVPAEARQNAGIYFRAGALRLPGRLL
B9: 85 (protein)
chain: B1 chain with D85N, M143A, E159V, S198A, F211Y, P257A, P485A
B10: 185 (protein)
chain: B8 chain with D79N, S146D, V159Q, T162A, G311D, K320N, H358R, P381S, L662F
B11: 188 (protein)
chain: B8 chain with N128K, A222I, C225S, G311D, K320N, H358R, L662F
B12: 82 (protein)
chain: B8 chain with D79N, N128K, T162A, S198A, Y211F, G311D, K320N, H358R, L662F
B13: 83 (protein)
chain: B1 chain with D79N, M143A, E159V, S198A, I222A, S225C, P257A, P485A, A525T
B14: 81 (protein)
chain: STAIAQEGAAPAAILHPRKWPRLATQRLIDPAVKKRVDALLKQLSVKEKVGQVIQGDIGTITPEDLRKYSLGSILAGGNSGPNGDDRAPPKEWLDLADAFYRVSLEKRPGHTPIPVLFGIDAVHGHGNIGSATIFPHNIALGATRDPELLRRIGEVTAVEMAATGIDWTFAPALSVVRDDRWGRTYEGFSEDPEIVAAYSAAIVEGVQGKFGSKDFMAPGRIVACAKHFLADGGTDQGRDQGDARISEDELIRIHNAGYPPAIDAGVLTVMASFSSWQGIKHHGHKQLLTDVLKGQMGFNGFIVGDWNAHDQVPGCTKFNCPTSLIAGLDMYMAADSWKQLYENTLAQVKDGTIPMARLDDAVRRILRVKVLAGLFEKPAPKDRPGLPGLETLGSPEHRAVGREAVRKSLVLLKNDKGTLPLSPKARVLVAGDGADNIGKQSGGWTISWQGTGNRNDEFPGATSILGGIRDAVADAGGSVEFDVAGQYKTKPDVAIVVFGEEPYAEFQGDVETLEYQPDQKQDLALLKKLKDQGIPVVAVFLSGRPMWVNPELNASDAFVAAWLPGTEGGGVADVLFTDKAGKVQHDFAGKLSYSWPRTAAQTTVNRGDADYNPLFAYGYGLTYKDKSKVGTLPEESGVPAEARQNAGIYFRAGALRLPGRFL
B15: 190 (protein)
chain: B1 chain with D79N, M143A, E159V, S198A, P257A, F274Q, P485A
B16: 192 (protein)
chain: B1 chain with D79N, M143A, E159V, S198A, P257A, F274A, P485A
B17: 189 (protein)
chain: B1 chain with D79N, M143A, E159V, S198A, P257A, F274K, P485A
B18: 193 (protein)
chain: B1 chain with D79N, M143A, E159V, S198A, P257A, I326S, P485A
B19: 186 (protein)
chain: B1 chain with N128K, I134N, M143A, E159Q, S198A, S225C, P257A, P485A
B20: 84 (protein)
chain: B1 chain with D79N, N128K, M143A, E159V, S198A, I222A, P257A, P485A
B21: 200 (protein)
chain: B1 chain with P257A, P485A
B22: 86 (protein)
chain: B1 chain with D79N, E159V, P219M, P257A, P485A
B23: 191 (protein)
chain: B1 chain with D79N, M143A, E159V, S198A, P257A, F274A, D436N, P485A
B24: 184 (protein)
chain: STAIAQEGAAPAAILHPEKWPRPATQRLIDPAVEKRVDALLKQLSVEEKVGQVIQGDIGTITPEDLRKYPLGSILAGGDSGPNGDDRAPPKEWLDLADAFYRVSLEKRPGHTPIPVLFGIDAVHGHGKIGSATIFPHNIALGATRSPELLRRIGEVTAQEMAATGIDWTFAPALSVVRDDRWGRTYEGFSEDPEIVAAYSPAIVEGVQGKYGSKDFMAVGRIVASAKHFLADGGTDQGRDQGDARISEDELIRIHNAGYPPAIDAGVLTVMASFSSWQGVKHHGHKQLLTDVLKGQMGFNGFIVGDWNAHDQVPGCTKFNCPTSLIAGLDMYMAADSWKQLYENTLAQVKDGTIPMARLDDAVRRILRVKVLAGLFEKPAPKDRPGLPGLETLGSPEHRAVGREAVRKSLVLLKNDKGTLPLSPKARVLVAGDGADNIGKQSGGWTISWQGTGNRNDEFPGATSILGGIRDAVADAGGSVEFDVAGQYKTKPDVAIVVFGEEPYAEFQGDVETLEYQPDQKQDLALLKKLKDQGIPVVAVFLSGRPMWVNPELNASDAFVAAWLPGTEGGGVADVLFTDKAGKVQHDFAGKLSYSWPRTAAQTTVNRGDADYNPLFAYGYGLTYKDKSKVGTLPEESGVPAEARQNAGIYFRAGALRLPGRFL
B25: 202 (protein)
chain: B1 chain with P257A, P485A, G570P
B26: 201 (protein)
chain: B1 chain with P257A, P485A, A539V
B27: 206 (protein)
chain: B1 chain with S213P, P257A, P485A
B28: 203 (protein)
chain: B1 chain with P257A
B29: 208 (protein)
chain: B1 chain with G59R, P257A, P485A
B30: 205 (protein)
chain: B1 chain with P257A, S479A, P485A
B31: 207 (protein)
chain: B1 chain with P257A, P485A, T604P

test: High throughput cellobiose assay: fold improvement in cellobiase activity of CelA variants over a control enzyme (Tables 2A-2D, 3, 5, 6, 7); format: biochemical; conditions: 3.3 g/l cellobiose, 55° C. and pH 6.0

| Molecule | Fold improvement over Control Variant No. 5 from Table 2A |
| --- | --- |
| B1 | ++ (++ = 1.1 to 6 fold improvement over control Variant No. 2) |
| B2 | ++ (++ = 1.1 to 6 fold improvement over control Variant No. 2) |
| B3 | ++ (++ = 1.1 to 6 fold improvement over control Variant No. 2) |
| B4 | ++ (++ = 1.1 to 6 fold improvement over control Variant No. 2) |
| B5 | ++ (++ = 1.1 to 6 fold improvement over control Variant No. 2) |
| B6 | ++ (++ = 1.1 to 6 fold improvement over control Variant No. 2) |
| B7 | ++ (++ = 1.1 to 6 fold improvement over control Variant No. 2) |
| B8 | ++ (++ = 1.1 to 6 fold improvement over control Variant No. 2) |
| B9 | ++ (++ = 1.1 to 6 fold improvement over control Variant No. 2) |
| B10 | ++ (++ = 1.1 to 6 fold improvement over control Variant No. 2) |
| B11 | ++ (++ = 1.1 to 6 fold improvement over control Variant No. 2) |
| B12 | +++ (+++ = 6 to 13 fold improvement over control Variant No. 2) |
| B13 | +++ (+++ = 6 to 13 fold improvement over control Variant No. 2) |
| B14 | ++ (++ = 1.1 to 6 fold improvement over control Variant No. 2) |
| B15 | ++ (++ = 1.1 to 6 fold improvement over control Variant No. 2) |
| B16 | ++ (++ = 1.1 to 6 fold improvement over control Variant No. 2) |

| Molecule | Fold improvement over Control Variant No. 5 from Table 2A |
| --- | --- |
| B17 | ++ (++ = 1.1 to 6 fold improvement over control Variant No. 2) |
| B18 | ++ (++ = 1.1 to 6 fold improvement over control Variant No. 2) |
| B19 | +++ (+++ = 6 to 13 fold improvement over control Variant No. 2) |
| B20 | +++ (+++ = 6 to 13 fold improvement over control Variant No. 2) |
| B21 | +++ (+++ = 6 to 13 fold improvement over control Variant No. 2) |
| B22 | ++ (++ = 1.1 to 6 fold improvement over control Variant No. 2) |
| B23 | ++ (++ = 1.1 to 6 fold improvement over control Variant No. 2) |
| B24 | +++ (+++ = 6 to 13 fold improvement over control Variant No. 2) |
| B25 | ++ (++ = 1.1 to 6 fold improvement over control Variant No. 2) |
| B26 | ++ (++ = 1.1 to 6 fold improvement over control Variant No. 2) |
| B27 | ++ (++ = 1.1 to 6 fold improvement over control Variant No. 2) |
| B28 | ++ (++ = 1.1 to 6 fold improvement over control Variant No. 2) |
| B29 | ++ (++ = 1.1 to 6 fold improvement over control Variant No. 2) |
| B30 | ++ (++ = 1.1 to 6 fold improvement over control Variant No. 2) |
| B31 | ++ (++ = 1.1 to 6 fold improvement over control Variant No. 2) |
